T1: synthetic peptide substrate containing the Swedish KM→NL mutation (SEVNLDAEFR)
T1 chain: SEVNLDAEFR

T2: synthetic peptide substrate containing the wild-type APP β-secretase site (SEVKMDAEFR)
T2 chain: SEVKMDAEFR

B1: Recombinant human Asp2(a) prepared in CHO cells (protein)
chain: ETDEEPEEPGRRGSFVEMVDNLRGKSGQGYYVEMTVGSPPQTLNILVDTGSSNFAVGAAPHPFLHRYYQRQLSSTYRDLRKGVYVPYTQGKWEGELGTDLVSIPHGPNVTVRANIAAITESDKFFINGSNWEGILGLAYAEIARPDDSLEPFFDSLVKQTHVPNLFSLHLCGAGFPLNQSEVLASVGGSMIIGGIDHSLYTGSLWYTPIRREWYYEVIIVRVEINGQDLKMDCKEYNYDKSIVDSGTTNLRLPKKVFEAAVKSIKAASSTEKFPDGFWLGEQLVCWQAGTTPWNIFPVISLYLMGEVTNQSFRITILPQQYLRPVEDVATSQDDCYKFAISQSSTGTVMGAVIMEGFYVVFDRARKRIGFAVSACHVHDEFRTAAVEGPFVTLDMEDCGYNIPQTDESTLMTIAYVMAAICALFMLPLCLMVCQWRCLRCLRQQHDDFADDISLLK
B2: Hu-Asp2(b) expressed in CHO cells (protein)
chain: TQHGIRLPLRSGLGGAPLGLRLPRETDEEPEEPGRRGSFVEMVDNLRGKSGQGYYVEMTVGSPPQTLNILVDTGSSNFAVGAAPHPFLHRYYQRQLSSTYRDLRKGVYVPYTQGKWEGELGTDLVSIPHGPNVTVRANIAAITESDKFFINGSNWEGILGLAYAEIARLCGAGFPLNQSEVLASVGGSMIIGGIDHSLYTGSLWYTPIRREWYYEVIIVRVEINGQDLKMDCKEYNYDKSIVDSGTTNLRLPKKVFEAAVKSIKAASSTEKFPDGFWLGEQLVCWQAGTTPWNIFPVISLYLMGEVTNQSFRITILPQQYLRPVEDVATSQDDCYKFAISQSSTGTVMGAVIMEGFYVVFDRARKRIGFAVSACHVHDEFRTAAVEGPFVTLDMEDCGYNIPQTDESTLMTIAYVMAAICALFMLPLCLMVCQWRCLRCLRQQHDDFADDISLLK

Assays:
[1] = biological target: T1, synthetic peptide substrate containing …
[2] = biological target: T2, synthetic peptide substrate containing …

Protein | proteolysis of peptide substrate (percent hydrolysis by RP-HPLC), Swedish peptide against wild type after 6 hours [1] | proteolysis of peptide substrate (percent hydrolysis by RP-HPLC) [2] | proteolysis of peptide substrate (RP-HPLC) [1]
B1 | about 10-fold higher than wild type APP | Maximal proteolysis was seen with the Swedigh β-secretase peptide, which, after 6 hours, was about 10-fold higher than wild type APP | –
B2 | – | – | also cleaves the Swedish β-secretase peptide in proteolysis assays using identical assay conditions
